Experimental findings from the Immune Epitope Database (IEDB) are described below.

The target of one assay is HLA-A*01:01. Nature of the assay: IEDB peptide-MHC binding, purified MHC/competitive/radioactivity; filed as Kd, often an IC50 or EC50 that approximates it; ≥ and ≤ were set here for values at or beyond the usual limits of such assays.
For another assay, the target named is HLA-A*02:02. The assay is described as above.
The next assay has as its target HLA-A*02:03. The assay is described as above.
In a further assay the target is HLA-A*02:06. The assay is described as above.
A further assay deals with HLA-A*03:01. Nature of the assay: IEDB peptide-MHC binding, purified MHC/direct/fluorescence; filed as Kd, often an IC50 or EC50 that approximates it; ≥ and ≤ were set here for values at or beyond the usual limits of such assays.
For another assay, the target named is HLA-A*11:01. The assay is described as above.
The target in another assay is HLA-A*02:01. Described as above.
A further assay concerns the target HLA-B*15:01. The description is as above.
In the next assay the target is HLA-B*58:01. The assay is described as above. Conditions: source organism: Homo sapiens.
A further assay concerns the target HLA-B*07:02. Described as above. Particulars: source organism: Human immunodeficiency virus 1.
A further assay has as its target HLA-A*69:01. Described as above. Particulars: source organism: Burkholderia mallei.
Setting [1] is: source organism: Vaccinia virus WR.
Where [2] appears, read: source organism: Vaccinia virus Copenhagen.
[3] abbreviates: source organism: Dengue virus 4 Philippines/H241/1956.
The mark [4] stands for this setting: source organism: Orthohantavirus hantanense.
Where [5] appears, read: source organism: Vibrio vulnificus.
Setting [6] is: source organism: SARS coronavirus Tor2.

pKd: −log10 of the molar value.

The term pKd denotes the negative decadic logarithm of the Kd, by convention in mol/L. Take NLTSTWVMY: the pKd with HLA-A*01:01 (source organism: Dengue virus 4 Dominica/814669/1981) was 5.70.

For the sequence GIRCVSNLDI, the negative-log Kd (pKd) with HLA-A*02:02 (setting [1]) is no more than 4.70; in the assay with HLA-A*02:03 (setting [1]), 5.41; with HLA-A*02:06 (setting [1]) it was no more than 4.48.

Consider YLRLYIILA, for which the pKd in the assay with HLA-A*02:02 (setting [2]) was 8.08; in the assay with HLA-A*02:03 (setting [2]) it was 7.28; with HLA-A*02:06 (setting [2]), 5.38.

In the case of DVLPFDIKYI, the pKd in the assay with HLA-A*02:02 (setting [1]) is 5.92; with HLA-A*02:03 (setting [1]), 6.73; with HLA-A*02:06 (setting [1]), 5.95.

Consider HINDQKFDDV, for which the negative logarithm of the Kd (pKd) in the assay with HLA-A*02:02 (setting [1]) is 5.23; in the assay with HLA-A*02:03 (setting [1]), 5.94; with HLA-A*02:06 (setting [1]), 5.92.

In the case of LTSRETALM, the pKd with HLA-A*01:01 (setting [3]) is 5.74.

Regarding MLYILGLFK, the pKd in the assay with HLA-A*03:01 (setting [4]) is 6.99; in the assay with HLA-A*11:01 (setting [4]), 7.73.

Consider GLDPTGVAV, for which the pKd with HLA-A*02:01 (source organism: Mycobacterium tuberculosis) was 7.76.

Take SIGFEARIV: the figures for the negative logarithm of the Kd (pKd) with HLA-A*02:02 (setting [1]), with HLA-A*02:03 (setting [1]) and in the assay with HLA-A*02:06 (setting [1]) were 5.00, 6.24 and 5.88, respectively.

On to IADMGHLKY, for which the pKd with HLA-A*03:01 (source organism: Homo sapiens) was 5.52; with HLA-A*11:01 (source organism: Homo sapiens) it was 5.55; in the assay with HLA-B*15:01 (source organism: Homo sapiens), 5.39; in the assay with HLA-B*58:01 it was 5.70.

Turning to DMLLNVQTL, the negative logarithm of the Kd (pKd) was 5.13 in the assay with HLA-A*02:02 (setting [1]), 5.29 in the assay with HLA-A*02:03 (setting [1]) and 4.87 with HLA-A*02:06 (setting [1]).

LIYYQNEVT: the pKd with HLA-A*02:02 (setting [1]) is 4.85; with HLA-A*02:03 (setting [1]), 5.28; in the assay with HLA-A*02:06 (setting [1]), 5.07.

Consider IIAVFDSKLI, for which the pKd with HLA-A*02:02 (setting [1]) is 6.12; with HLA-A*02:03 (setting [1]) it was 6.23; in the assay with HLA-A*02:06 (setting [1]), 5.07.

Take EPIVGAETF: in the assay with HLA-B*07:02, the pKd is 5.25.

In the case of NTLIQYRQQL, the figures for the pKd with HLA-A*02:02 (setting [1]), with HLA-A*02:03 (setting [1]) and with HLA-A*02:06 (setting [1]) were 5.20, 5.00 and no more than 4.68, respectively.

In the case of MAEFEDQLV, the negative-log Kd (pKd) in the assay with HLA-A*02:02 (setting [1]) is 6.78; in the assay with HLA-A*02:03 (setting [1]), 6.19; in the assay with HLA-A*02:06 (setting [1]), 5.26.

For DAAAPLPPV, the negative-log Kd (pKd) was no more than 4.70 in the assay with HLA-A*02:01 (source organism: Burkholderia mallei) and 9.10 with HLA-A*69:01.

Turning to FLPQIGGEA, the negative-log Kd (pKd) in the assay with HLA-A*02:02 (setting [1]) was 7.68; with HLA-A*02:03 (setting [1]), 6.92; in the assay with HLA-A*02:06 (setting [1]), 7.02.

On to TQMGGWFQK, for which the pKd was 6.07 with HLA-A*03:01 (setting [5]) and 7.36 with HLA-A*11:01 (setting [5]).

Take RTWFHGSLY: the pKd in the assay with HLA-A*03:01 (source organism: Cryptosporidium parvum) was 7.88.

For the sequence GIDTSNNIA, the pKd with HLA-A*02:02 (setting [1]) was no more than 4.30; with HLA-A*02:03 (setting [1]) it was no more than 4.15; in the assay with HLA-A*02:06 (setting [1]), no more than 4.60.

Take IVAMLLTHGA: the pKd with HLA-A*02:02 (setting [1]) was 5.94; with HLA-A*02:03 (setting [1]) it was 6.82; with HLA-A*02:06 (setting [1]) it was 7.09.

Take ITDYQGKTV: in the assay with HLA-A*01:01 (setting [3]), the pKd is no more than 4.47.

For the sequence DVNEEYTEAA, the pKd with HLA-A*02:02 (setting [1]) was no more than 4.33; in the assay with HLA-A*02:03 (setting [1]) it was no more than 4.54; in the assay with HLA-A*02:06 (setting [1]) it was no more than 4.23.

IVSRSSRGV: the negative-log Kd (pKd) with HLA-A*02:02 (setting [1]) is 6.58; in the assay with HLA-A*02:03 (setting [1]) it was 4.88; in the assay with HLA-A*02:06 (setting [1]), 6.32.

For LIGKEEYVDY, the negative logarithm of the Kd (pKd) with HLA-A*01:01 (setting [3]) was 5.10.

As to VLEENMDVEI, the pKd in the assay with HLA-A*01:01 (source organism: Dengue virus 1 Brazil/97-11/1997) was no more than 4.33.

For VIPDELIDVL, the negative-log Kd (pKd) with HLA-A*02:02 (setting [1]) was 5.60; with HLA-A*02:03 (setting [1]), 5.34; in the assay with HLA-A*02:06 (setting [1]) it was 6.53.

For TLLIKTLSPA, the values for the pKd in the assay with HLA-A*02:02 (setting [1]), with HLA-A*02:03 (setting [1]) and in the assay with HLA-A*02:06 (setting [1]) were 8.98, 8.93 and 9.14, respectively.

Regarding PASKKESVI, the negative logarithm of the Kd (pKd) in the assay with HLA-A*02:02 (setting [1]) is 5.87; in the assay with HLA-A*02:03 (setting [1]), 5.75; in the assay with HLA-A*02:06 (setting [1]) it was 4.99.

Regarding YTVEFDRDKV, the negative logarithm of the Kd (pKd) in the assay with HLA-A*02:02 (setting [1]) is 7.08; with HLA-A*02:03 (setting [1]) it was 6.81; in the assay with HLA-A*02:06 (setting [1]), 7.66.

On to NIVTFINDYA, for which the pKd was 7.21 in the assay with HLA-A*02:02 (setting [1]), 6.61 with HLA-A*02:03 (setting [1]) and 6.45 in the assay with HLA-A*02:06 (setting [1]).

As for LLFLVLIMLI, the negative logarithm of the Kd (pKd) in the assay with HLA-A*02:02 (setting [6]) is 6.35; with HLA-A*02:03 (setting [6]), 5.50; in the assay with HLA-A*02:06 (setting [6]), 5.08.

For the sequence RAGYSIVEL, the pKd with HLA-A*02:02 (setting [1]) was 5.31; with HLA-A*02:03 (setting [1]), 5.27; with HLA-A*02:06 (setting [1]) it was 5.29.

With ETVKMGAFM, the results for the pKd in the assay with HLA-A*02:02 (setting [1]), with HLA-A*02:03 (setting [1]) and in the assay with HLA-A*02:06 (setting [1]) were 4.82, 5.13 and no more than 4.39, respectively.

As for VIRNEVNDT, the results for the negative logarithm of the Kd (pKd) with HLA-A*02:02 (setting [1]), with HLA-A*02:03 (setting [1]) and in the assay with HLA-A*02:06 (setting [1]) were 4.70, 6.09 and no more than 4.11, respectively.

Sequence GMHHLYREY gave a negative-log Kd (pKd) with HLA-B*15:01 (source organism: Mammarenavirus juninense) of 6.87.
